Patent US20210221899A1 (published 2021)
Where a chain is given by its changes, count along the chain named.

T1: canine NGF (canine, UniProt Q29074 110-229 (pig entry), limits assumed)
T1 construct: The protein was secreted from CHO cells and purified; also called cNGF; canine β-NGF
T1 chain: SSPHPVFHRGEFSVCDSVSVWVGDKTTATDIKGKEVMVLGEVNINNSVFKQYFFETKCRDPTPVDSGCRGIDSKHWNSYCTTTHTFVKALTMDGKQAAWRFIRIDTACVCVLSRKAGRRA

T2: human NGF (human, UniProt P01138 122-241)
T2 construct: also called human Nerve Growth Factor; hN
T2 chain: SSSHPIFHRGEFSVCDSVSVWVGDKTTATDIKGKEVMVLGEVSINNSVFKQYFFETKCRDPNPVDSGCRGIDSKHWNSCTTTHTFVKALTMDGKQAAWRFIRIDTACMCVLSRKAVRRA

B1: can9L12VH_E99A (antibody, V domains shown)
VH: EVQLVESGGDLVKPGGSLRLSCVASGFTFSSHGMHWVRQSPGKGLQWVAVINSGGSSTYYTDAVKGRFTISRDNAKNTVYLQMNSLRAEDTAMYYCAKASVGGWEQLVGPHFDYWGQGTLVIVSS
VL: QSVLTQPTSVSGSLGQRVTISCSGSTNNIGILGASWYQLFPGKAPKLLVYGNGNRPSGVPDRFSGADSGDSVTLTITGLQAEDEADYYCQSFDTTLGAHVFGGGTHLTVL
B2: can9L12VH_F29A (antibody, V domains shown)
VH: B1 VH with F29A, A99E
VL: B1 VL
B3: can9L12VH_P110A (antibody, V domains shown)
VH: B1 VH with A99E, P110A
VL: B1 VL
B4: can9L12VH_S31A (antibody, V domains shown)
VH: B1 VH with S31A, A99E
VL: B1 VL
B5: can9L12VH_S57A (antibody, V domains shown)
VH: B1 VH with S57A, A99E
VL: B1 VL
B6: can9L12VH_L107A (antibody, V domains shown)
VH: B1 VH with A99E, L107A
VL: B1 VL
B7: can9L12VH_V101A (antibody, V domains shown)
VH: B1 VH with A99E, V101A
VL: B1 VL
B8: can9L12VH_G55A (antibody, V domains shown)
VH: B1 VH with G55A, A99E
VL: B1 VL
B9: can9L12VH_N52A (antibody, V domains shown)
VH: B1 VH with N52A, A99E
VL: B1 VL
B10: can9L12VH_G33A (antibody, V domains shown)
VH: B1 VH with G33A, A99E
VL: B1 VL
B11: can9L12VH_Q106A (antibody, V domains shown)
VH: B1 VH with A99E, Q106A
VL: B1 VL
B12: can9L12VH_F112A (antibody, V domains shown)
VH: B1 VH with A99E, F112A
VL: B1 VL
B13: can9L12VH_S56A (antibody, V domains shown)
VH: B1 VH with S56A, A99E
VL: B1 VL
B14: can9L12VH_H111A (antibody, V domains shown)
VH: B1 VH with A99E, H111A
VL: B1 VL
B15: can9L12VH_T28A (antibody, V domains shown)
VH: B1 VH with T28A, A99E
VL: B1 VL
B16: can9L12VH_S100A (antibody, V domains shown)
VH: B1 VH with A99E, S100A
VL: B1 VL
B17: can9L12VH_S53A (antibody, V domains shown)
VH: B1 VH with S53A, A99E
VL: B1 VL
B18: can9L12VH_G103A (antibody, V domains shown)
VH: B1 VH with A99E, G103A
VL: B1 VL
B19: can9L12VH_G54A (antibody, V domains shown)
VH: B1 VH with G54A, A99E
VL: B1 VL
B20: can9L12VH_G26A (antibody, V domains shown)
VH: B1 VH with G26A, A99E
VL: B1 VL
B21: can9L12VH_S30A (antibody, V domains shown)
VH: B1 VH with S30A, A99E
VL: B1 VL
B22: can9L12VH_T58A (antibody, V domains shown)
VH: B1 VH with T58A, A99E
VL: B1 VL
B23: can9L12VH_E105A (antibody, V domains shown)
VH: B1 VH with A99E, E105A
VL: B1 VL
B24: can9L12VH_G102A (antibody, V domains shown)
VH: B1 VH with A99E, G102A
VL: B1 VL
B25: can9L12VH_K98A (antibody, V domains shown)
VH: B1 VH with K98A, A99E
VL: B1 VL
B26: can9L12VH_G109A (antibody, V domains shown)
VH: B1 VH with A99E, G109A
VL: B1 VL
B27: can9L12VH_F27A (antibody, V domains shown)
VH: B1 VH with F27A, A99E
VL: B1 VL
B28: can9L12VH_H32A (antibody, V domains shown)
VH: B1 VH with H32A, A99E
VL: B1 VL

Molecular target: T1, canine NGF
Assay: SPR (Biacore T200), 100 nM mAb on NGF chip, similarity to parent mAb
Source text: (§1) The region of an antibody responsible for antigen recognition represents the paratope. A paratope is created by a combination of amino acids in the complementarity determining regions (CDRs) of both the heavy and light chain variable regions. The binding between antibody and antigen is often mediated by side chains of CDR residues with side chains or carbohydrate moieties of the antigen. To help define critical side chains involved in antibody recognition alanine scanning mutagenesis was performed on each CDR residue in both the heavy and light chain, the technique as described by Cunningham and Wells (1989) Science, Vol. 244, Issue 4908, pp. 1081-1085. These mutants were then individually tested for the ability to NGF using the Biacore. […] Values were then compared to the wild type antibodies and are represented in the tables as a percent of wild type binding. The data presented in Tables 4 and 5 below are shown as a “percent similarity score” compared to wild type.
(§2) The mean response unit of four replicates of the parent mAb+/−3 standard deviations was used to generate parameters to define a threshold of response units comprising both the on- and off-rates antibody binding. The percentage of data points for each mutant fell within this threshold was then used to define a “% similarity score”. […] Results from substitution of alanine at each CDR position

Binder | Percent Similarity Score (KD on cN) [%]
B1 | 97.7
B2 | 100
B3 | 6.48
B4 | 100
B5 | 89.9
B6 | 5.45
B7 | 13.6
B8 | 100
B9 | 85.8
B10 | 100
B11 | 100
B12 | 28.3
B13 | 96.8
B14 | 10.1
B15 | 100
B16 | 76.2
B17 | 100
B18 | 99.8
B19 | 100
B20 | 100
B21 | 94.7
B22 | 100
B23 | 100
B24 | 11
B25 | 22.8
B26 | 100
B27 | 100
B28 | 38.2

Molecular target: T2, human NGF
Assay: as above
Source text: as §1, §2

Binder | Percent Similarity Score (KD on hN) [%]
B1 | 82
B2 | 100
B3 | 2.1
B4 | 99.9
B5 | 33.4
B6 | 1.82
B7 | 5.29
B8 | 100
B9 | 38.2
B10 | 100
B11 | 100
B12 | 8
B13 | 40.5
B14 | 2.79
B15 | 96.6
B16 | 42.1
B17 | 100
B18 | 38.2
B19 | 96.2
B20 | 97.4
B21 | 31.2
B22 | 100
B23 | 98.4
B24 | 3.4
B25 | 8.58
B26 | 40
B27 | 100
B28 | 13.8

Molecular target: T3, rat NGF (rat, UniProt P25427 122-241)
T3 construct: also called rN
Assay: as above
Source text: as §1, §2

T3 sequence (P25427 122-241 limits assumed): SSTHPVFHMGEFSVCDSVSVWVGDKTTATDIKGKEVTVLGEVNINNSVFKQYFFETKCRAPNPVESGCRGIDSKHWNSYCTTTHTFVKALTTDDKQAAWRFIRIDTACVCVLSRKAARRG

Binder | Percent Similarity Score (KD on rN) [%]
B1 | 80.5
B2 | 99.9
B3 | 2.6
B4 | 100
B5 | 100
B6 | 2
B7 | 4.27
B8 | 99.3
B9 | 19.7
B10 | 99.9
B11 | 99.9
B12 | 11.8
B13 | 96
B14 | 3.25
B15 | 100
B16 | 51.6
B17 | 99.9
B18 | 62.5
B19 | 93.8
B20 | 94.8
B21 | 99.9
B22 | 99.9
B23 | 100
B24 | 4.7
B25 | 7.92
B26 | 62
B27 | 100
B28 | 51.5
